Test results reported in patent US20240209095A1 (DEVELOPMENT CENTER FOR BIOTECHNOLOGY, published 2024).
Substitutions are numbered along the chain they refer to.

B1: mouse hybridoma anti-human PD-L1 antibody 1G8 (antibody, V domains shown)
VH: QVQLQESGPGLAKPSQTLSLTCSVTGYSITSDYWNWIRKFPGNKLEFMGYISYTGSTYYNPSLKSRISITRDTSKNQYYLQLNSVTTEDTATYYCARRGEWLSPFAYWGQGTLVTVSA
VL: DIVMSQSPSSLGVSVGEKITMSCKSSQSLLYSSNQKNSLAWYQQKPGQSPKLLIYWASTRESGVPDRFTGSGSGTDFTLTISSVKSEDLAVYYCQQYYTYPFTFGAGTNLELK
notes: Mouse monoclonal antibody from hybridoma, detected with goat anti-mouse IgG; also called mAb 1G8; mouse clone 1G8
B2: mouse hybridoma anti-human PD-L1 antibody 3C3 (antibody, V domains shown)
VH: B1 VH with Q1E, A12T, N35D, F47Y, K64R, N83S, T87S, T90S, E100G, A106V
VL: B1 VL with I2T, K18R, I19V, M21L, S22T, S26R, Y31F, N109S
notes: Mouse monoclonal antibody from hybridoma, detected with goat anti-mouse IgG; also called mAb 3C3; mouse clone 3C3
B3: 3C3 humanized antibody HuB2Hu2 (antibody, V domains shown)
VH: EVQLQESGPGLVKPSQTLSLTCTVSGYSITSDYWDWIRKPPGKGLEYMGYISYTGSTYYNPSLRSRITISRDTSKNQYSLKLSSVTAADTAVYYCARRGGWLSPFVYWGQGTLVTVSS
VL: DIVMTQTPLSLSVTPGQPASISCKSRQSLLFSSNQKNSLAWYLQKPGQSPQLLIYWASTRESGVPDRFSGSGSGTDFTLKISRVEAEDVGVYYCQQYYTYPFTFGQGTKLEIK
notes: Human IgG, kappa, from pTCAED vectors; also called 3C3-HuB2Hu2; 3C3 HuB2Hu2

How the values were obtained:
[1] = molecular target: T1, human PD-L1 (coated on ELISA plate) (human, UniProt Q9NZQ7 19-238, limits assumed); assay: ELISA, PD-L1 coated 0.1 µg/well, goat anti-mouse IgG-HRP
T1 construct: construct not described; also called CD274; B7 homolog 1
T1 sequence (Q9NZQ7 19-238 limits assumed): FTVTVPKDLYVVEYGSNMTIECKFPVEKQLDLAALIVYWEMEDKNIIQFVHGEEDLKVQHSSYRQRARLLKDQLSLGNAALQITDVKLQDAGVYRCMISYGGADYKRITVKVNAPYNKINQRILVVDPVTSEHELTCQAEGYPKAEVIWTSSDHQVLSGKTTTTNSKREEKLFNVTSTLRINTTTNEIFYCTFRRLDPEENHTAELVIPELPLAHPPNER
Description: Briefly, PD-L1 was coated on a 96-well ELISA plate (0.1 μg/well). After binding of anti-PD-L1 antibodies, a goat anti mouse IgG conjugated with horse radish peroxidase (HRP) was used as a second antibody and 3,3′,5,5′-Tetramethylbenzidine (TMB) was used as a substrate to assess the antibody-PD-L1 bindings. The OD405 was read to calculate the activities.

[2] = molecular target: T2, human PD-L1 expressed on cells (HCC827 cells; PD-L1 aAPC/CHO-K1 cells) (human, UniProt Q9NZQ7 19-290); assay: cell-based or functional assay
T2 sequence (Q9NZQ7 19-290): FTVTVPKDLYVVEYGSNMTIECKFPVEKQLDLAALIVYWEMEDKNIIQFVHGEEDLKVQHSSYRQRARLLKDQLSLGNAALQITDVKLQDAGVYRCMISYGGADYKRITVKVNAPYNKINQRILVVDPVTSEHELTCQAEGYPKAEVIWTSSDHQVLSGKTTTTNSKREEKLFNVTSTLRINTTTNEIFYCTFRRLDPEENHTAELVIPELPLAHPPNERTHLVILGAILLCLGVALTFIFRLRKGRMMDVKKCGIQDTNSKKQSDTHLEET

[3] = molecular target: T2, human PD-L1 expressed on cells (HCC827 …); assay: cell-based or functional assay; remark: listed apart in the source
PDL1-hFc [4] = molecular target: T3, PDL1-hFc (UniProt Q9NZQ7 19-238); assay: ELISA titration on PDL1-hFc 1 ug/ml, 45 nM to 2.7×10^-3 nM, one site-specific binding fit
T3 construct: Coated at 1 µg/ml in the ELISAs of the chimeric and humanized antibodies; construct not described
T3 sequence (Q9NZQ7 19-238): as the sequence (Q9NZQ7 19-238 limits assumed) above
Description: (§1) ELISA plates were coating with PDL1-hFc 1 ug/ml and blocked by 5% milk PBS, then add assay antibodies form 45 nM to 2.7×10⁻³ nM dilute (4× fold dilution). Assay will measured by add goat anti-human KAPPA HRP IgG 1:4000 and binding curve and KD was determined by GraphPad Prism software using One site-specific binding for none linear fit methods.

[5] = molecular target: T2, human PD-L1 expressed on cells (HCC827 …); assay: cell-based or functional assay; remark: listed apart in the source
PDL1-hFc [6] = molecular target: T3, PDL1-hFc; assay: ELISA titration on PDL1-hFc, KD compared with parental 3C3 (FIG. 10)
Description: as §1

PDL1-hFc [7] = molecular target: T3, PDL1-hFc; assay: ELISA, PDL1-hFc coated 1 µg/ml, antibody supernatant at 300 ng/ml, anti-human Kappa HRP
Description: The binding activity of humanized antibodies could be efficiently compared by all combination of heavy chains and light chains using mini scale antibody expression. The concentration of antibodies in culture supernatant was determent by anti-human IgG ELISA. For PDL1 ELISA, plates were coating with PDL1-hFc 1 μg/ml and blocked by 5% milk PBS. Assay antibodies were adjusted to 300 ng/ml, 100 μl/well. Anti-PDL1 signals were measured by secondary goat anti-human Kappa HRP IgG 1:4000 and color developed by TMB substrates (KPL). Optical absorption value was measured at OD450-655 nm by Bio-Rad ELISA reader.

Binder | Kd [1] [nM] | Luc repoter EC50 [2] [nM] | PD1/PD-L1 Blockade Reporter Assay EC50 [3] [nM] | Kd (PDL1-hFc [4]) [nM] | 3C3 humanized antibodies Blockade Reporter Assay EC50 [5] [nM] | fold affinity loss against parental mouse clone 3C3 (PDL1-hFc [6]) [fold] | OD450-650 nM, 300 ng/ml PDL1 binding (PDL1-hFc [7]) [OD]
B1 | 0.0435 | 0.62 | 0.62 |  |  |  | 
B2 | 0.0356 | 0.58 | 0.582 |  |  |  | 
B3 |  |  |  | 0.101 | 0.409 | < 2 | 1.05
